Laboratory results as given in US20060239990A1 (published 2006).

How the values were obtained:
RelA (p65) in 293 cells = target: T1, RelA (p65) in 293 cells (UniProt Q04206 1-551); experiment: immunoprecipitation with anti-HA antibody from transfected 293 cells, immunoblot for p65
T1 construct: also called endogenous p65
Excerpt: (§1) To map IκB-α domains that interacted with PRMT2, 293 cells were transfected with HA-tagged PRMT2 (FIG. 5C) and His-tagged derivatives of the indicated IκB-α expression vectors (FIG. 5B) as indicated. 24 hrs later cells were harvested in cell lysis buffer and cell lysates were immunoprecipitated with agarose-conjugated antibody to His (IκB-α) (FIG. 5D, lanes 1-4) and HA (PRMT2) (FIG. 5D, lanes 5-6), fractionated by SDS-PAGE and analyzed by immunoblotting with antibody to HA to detect PRMT2 ((FIG. 5D lanes 1, 2 and lanes 5, 6) and His (FIG. 5D, lanes 3, 4). To map the region of PRMT2 that interacted with endogenous IκB-α and p65, 293 cells were transfected with HA-tagged PRMT2 (FIG. 5C) derivatives as indicated. Cells were harvested 24 hrs after transfection in cell lysis buffer, immunoprecipitated with agarose-conjugated antibody to HA to detect PRMT2 and derivatives (FIG. 5E, lanes 7-15), fractionated by SDS-PAGE and analyzed by immunoblotting with antibody to p65 (FIG. 5E, lanes 7-9), IκB-α (FIG. 5E, lanes 10-12) or HA (FIG. 5E, lanes 13-15).
A polyclonal antibody to recombinant PRMT2 was used to examine the association between endogenous PRMT2 and IκB-α in vivo. […] The domain of IκB-α required for association with PRMT2 was mapped using in vivo immunoprecipitation assays where HA-tagged PRMT2 was coexpressed with truncation mutants of His-tagged IκB-α (FIG. 5B) in 293 cells. The ankyrin domain was both necessary and sufficient for this association (FIG. 5D, lanes 1 and 2). The domain of PRMT2 that interacted with endogenous IκB-α was mapped by immunoprecipitation following expression HA-tagged PRMT2 truncation mutants (FIG. 5C). […] When the ratios of PRMT2 or PRMT2-A binding to IκB-α were compared, both interacted with IκB-α with similar affinity.

[1] = target: T2, IκB-α, endogenous in 293 cells (human, UniProt P25963 1-317); experiment: immunoprecipitation with anti-HA antibody from transfected 293 cells, immunoblot for endogenous IκB-α
T2 construct: also called endogenous IκB-α
T2 sequence (looked up): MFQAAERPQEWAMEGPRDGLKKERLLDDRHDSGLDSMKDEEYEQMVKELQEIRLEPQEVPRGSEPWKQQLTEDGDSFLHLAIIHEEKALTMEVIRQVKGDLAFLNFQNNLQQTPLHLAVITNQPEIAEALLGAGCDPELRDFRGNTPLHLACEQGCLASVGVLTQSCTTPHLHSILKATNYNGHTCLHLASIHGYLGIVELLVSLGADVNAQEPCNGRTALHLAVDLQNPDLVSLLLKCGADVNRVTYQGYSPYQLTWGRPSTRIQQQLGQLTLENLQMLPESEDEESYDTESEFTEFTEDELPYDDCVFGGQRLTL
Excerpt: as §1
(§2) A polyclonal antibody to recombinant PRMT2 was used to examine the association between endogenous PRMT2 and IκB-α in vivo. […] The domain of IκB-α required for association with PRMT2 was mapped using in vivo immunoprecipitation assays where HA-tagged PRMT2 was coexpressed with truncation mutants of His-tagged IκB-α (FIG. 5B) in 293 cells. […]

[2] = target: T2, IκB-α, endogenous in 293 cells; experiment: immunoprecipitation with anti-HA antibody from transfected 293 cells, immunoblot for IκB-α
Excerpt: as §1, §2

[3] = target: T3, mouse retinoblastoma protein (RB), endogenous in MEFs (mouse, UniProt P13405 2-921); experiment: cell-based or functional assay
T3 sequence (looked up): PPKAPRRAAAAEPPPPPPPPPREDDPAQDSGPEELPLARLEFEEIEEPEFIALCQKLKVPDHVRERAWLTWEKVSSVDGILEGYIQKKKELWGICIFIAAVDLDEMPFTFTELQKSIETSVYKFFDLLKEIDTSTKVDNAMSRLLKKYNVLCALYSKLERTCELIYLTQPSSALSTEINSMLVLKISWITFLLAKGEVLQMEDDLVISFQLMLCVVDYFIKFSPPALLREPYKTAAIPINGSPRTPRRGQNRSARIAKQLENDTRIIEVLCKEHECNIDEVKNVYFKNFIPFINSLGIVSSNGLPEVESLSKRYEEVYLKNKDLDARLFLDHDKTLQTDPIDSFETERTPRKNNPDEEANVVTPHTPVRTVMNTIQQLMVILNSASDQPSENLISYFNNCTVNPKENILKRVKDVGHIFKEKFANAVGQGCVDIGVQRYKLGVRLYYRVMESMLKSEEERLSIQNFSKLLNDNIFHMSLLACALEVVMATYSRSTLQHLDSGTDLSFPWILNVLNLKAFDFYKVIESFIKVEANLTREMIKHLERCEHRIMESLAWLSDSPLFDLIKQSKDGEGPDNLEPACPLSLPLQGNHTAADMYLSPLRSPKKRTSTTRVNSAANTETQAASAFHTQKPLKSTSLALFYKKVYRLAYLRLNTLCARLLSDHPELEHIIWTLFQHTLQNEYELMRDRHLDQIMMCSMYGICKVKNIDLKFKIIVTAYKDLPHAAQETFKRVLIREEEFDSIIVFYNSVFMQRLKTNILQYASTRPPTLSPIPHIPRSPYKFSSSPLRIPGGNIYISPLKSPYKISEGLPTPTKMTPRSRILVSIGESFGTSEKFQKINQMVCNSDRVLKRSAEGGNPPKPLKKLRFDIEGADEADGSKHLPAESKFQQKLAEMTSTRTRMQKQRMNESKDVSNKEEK

[4] = target: mouse STAT3 (endogenous in GT1-7 cells and VSMC, or expressed from mouse STAT3 pcDNA3 in HEK293 cells) (mouse, UniProt P42227 2-770); experiment: immunoprecipitation with anti-STAT3 antibody from GT1-7 cell extracts with or without leptin (100 nM), immunoblot with anti-PRMT-2 antibody
Chain of mouse STAT3 (endogenous in GT1-7 cells and VSMC, or expressed from mouse STAT3 pcDNA3 in HEK293 cells) (P42227 2-770 limits assumed): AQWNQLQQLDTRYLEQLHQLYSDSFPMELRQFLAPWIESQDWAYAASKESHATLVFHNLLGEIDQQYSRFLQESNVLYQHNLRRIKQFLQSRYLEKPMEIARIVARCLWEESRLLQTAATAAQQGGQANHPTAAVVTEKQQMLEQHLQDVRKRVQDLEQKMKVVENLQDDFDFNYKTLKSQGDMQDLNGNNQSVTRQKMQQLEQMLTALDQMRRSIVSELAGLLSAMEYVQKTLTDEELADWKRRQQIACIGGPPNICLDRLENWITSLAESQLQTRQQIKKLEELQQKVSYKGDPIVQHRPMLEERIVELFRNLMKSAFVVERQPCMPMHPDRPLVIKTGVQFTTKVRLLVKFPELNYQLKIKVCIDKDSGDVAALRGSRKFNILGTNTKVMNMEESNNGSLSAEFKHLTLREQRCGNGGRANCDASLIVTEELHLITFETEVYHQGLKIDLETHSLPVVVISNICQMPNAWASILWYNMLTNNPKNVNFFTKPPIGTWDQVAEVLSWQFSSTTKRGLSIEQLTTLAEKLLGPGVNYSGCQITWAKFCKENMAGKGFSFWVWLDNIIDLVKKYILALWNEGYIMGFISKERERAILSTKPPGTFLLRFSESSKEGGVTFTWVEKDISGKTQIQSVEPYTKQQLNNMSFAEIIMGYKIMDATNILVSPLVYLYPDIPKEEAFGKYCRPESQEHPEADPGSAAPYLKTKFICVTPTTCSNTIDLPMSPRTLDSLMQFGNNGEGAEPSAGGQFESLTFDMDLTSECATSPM
Description: A mouse hypothalamic cell line, GT1-7, was established that expressed both STAT3 and PRMT-2 (FIG. 21B), and used as a cell model for the study of leptin signaling. To further examine whether leptin stimulated endogenous interaction between PRMT-2 and STAT3, extracts from the cells that were untreated or treated with mouse leptin (100 nM) were subjected to immunoprecipitation with anti-STAT3 antibody, followed by immunoblotting with anti-PRMT-2 antibody. […] However, treatment with leptin enhanced that amount PRMT-2 that co-precipitated with STAT3 (FIG. 21B, lane 3). PRMT-2 was not detectable in immunoprecipitates obtained with preimmune rabbit IgG (FIG. 21B, lane 1).

T1 sequence (Q04206 whole entry): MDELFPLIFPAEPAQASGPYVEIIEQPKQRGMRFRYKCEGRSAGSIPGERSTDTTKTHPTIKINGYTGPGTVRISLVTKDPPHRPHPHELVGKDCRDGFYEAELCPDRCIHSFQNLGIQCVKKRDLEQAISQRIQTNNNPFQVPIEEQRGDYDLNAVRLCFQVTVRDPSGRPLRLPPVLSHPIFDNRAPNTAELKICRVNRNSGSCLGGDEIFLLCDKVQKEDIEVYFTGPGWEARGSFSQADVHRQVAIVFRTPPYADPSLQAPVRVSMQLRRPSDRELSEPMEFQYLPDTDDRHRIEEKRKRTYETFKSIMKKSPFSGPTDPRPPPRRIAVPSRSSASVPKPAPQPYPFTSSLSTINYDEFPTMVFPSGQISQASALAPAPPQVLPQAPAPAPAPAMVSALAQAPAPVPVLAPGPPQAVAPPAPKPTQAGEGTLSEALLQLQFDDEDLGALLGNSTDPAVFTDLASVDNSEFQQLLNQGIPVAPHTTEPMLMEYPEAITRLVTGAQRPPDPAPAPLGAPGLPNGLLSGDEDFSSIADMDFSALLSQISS

B1: HA-tagged PRMT2-A (alternative splice variant, first 218 amino acids of PRMT2) (enzyme)
chain: MATSGDCPRSESQGEEPAECSEAGLLQEGVQPEEFVAIADYAATDETQLSFLRGEKILILRQTTADWWWGERAGCCGYIPANHVGKHVDEYDPEDTWQDEEYFGSYGTLKLHLEMLADQPRTTKYHSVILQNKESLTDKVILDVGCGTGIISLFCAHYARPRAVYAVEASEMAQHTGQLVLQNGFADIITVYQQKVEDVVLPEKVDVLVSEWMGTCLL
notes: Expressed by transfection in 293 cells; not shown: HA tag at the C-terminus
binding result (RelA (p65) in 293 cells): no binding | binding result [1]: binds

B2: HA-tagged PRMT2-N (first 95 amino acids of PRMT2) (enzyme)
chain: MATSGDCPRSESQGEEPAECSEAGLLQEGVQPEEFVAIADYAATDETQLSFLRGEKILILRQTTADWWWGERAGCCGYIPANHVGKHVDEYDPED
notes: as for B1
binding result (RelA (p65) in 293 cells): no binding | binding result [2]: no binding

B3: mouse PRMT2 (untagged; endogenous in NIH3T3 cells, MEFs, GT1-7 cells and VSMC, or expressed from mouse PRMT2 cDNA in HEK293 cells) (enzyme, UniProt Q9R144 1-448, looked up)
chain: MEAPGEGPCSESQVIPVLEEDPVDYGCEMQLLQDGAQLQLQLQPEEFVAIADYTATDETQLSFLRGEKILILRQTTADWWWGERAGCCGYIPANHLGKQLEEYDPEDTWQDEEYFDSYGTLKLHLEMLADQPRTTKYHSVILQNKESLKDKVILDVGCGTGIISLFCAHHARPKAVYAVEASDMAQHTSQLVLQNGFADTITVFQQKVEDVVLPEKVDVLVSEWMGTCLLFEFMIESILYARDTWLKGDGIIWPTTAALHLVPCSAEKDYHSKVLFWDNAYEFNLSALKSLAIKEFFSRPKSNHILKPEDCLSEPCTILQLDMRTVQVPDLETMRGELRFDIQKAGTLHGFTAWFSVYFQSLEEGQPQQVVSTGPLHPTTHWKQTLFMMDDPVPVHTGDVVHGFCCVTKKSGMEKAHVCLSELGCHVRTRSHVSTELETGSFRSGGDS
notes: also called endogenous PRMT2
E2F reporter activity (E2F4B-Luc) in MEFs [3]: ~3 fold | binding result [4]: binds
